Measurements taken from paper PMC5007439.

Molecular target: T1, bacteriophage MS2 coat protein (bacteriophage MS2), P03612
T1 chain: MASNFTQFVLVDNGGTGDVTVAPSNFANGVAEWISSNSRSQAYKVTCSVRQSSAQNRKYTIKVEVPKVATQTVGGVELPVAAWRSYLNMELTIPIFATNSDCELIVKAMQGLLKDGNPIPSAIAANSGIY
Assay: cryo-EM structure; single particle cryo-EM of purified MS2 virions (coat protein, A-protein and RNA genome); icosahedral reconstruction at 4.1 Å and asymmetric reconstruction at 8.7 Å
Settings: remark: other sources report otherwise

B1: bacteriophage MS2 coat protein, P03612 1-130 (natural protein)
chain: T1 chain
  stoichiometry N: 178 copies
